How the values were obtained:
FPRL2 [1] = target: T1, FPRL2 (Homo sapiens, UniProt P25089); experiment: aequorin-based functional assay on FPRL2-expressing CHO-K1 cells; details: aequorin assay (FMLP, SHAAG: aequorin and cAMP assays)
T1 sequence (P25089 1-353): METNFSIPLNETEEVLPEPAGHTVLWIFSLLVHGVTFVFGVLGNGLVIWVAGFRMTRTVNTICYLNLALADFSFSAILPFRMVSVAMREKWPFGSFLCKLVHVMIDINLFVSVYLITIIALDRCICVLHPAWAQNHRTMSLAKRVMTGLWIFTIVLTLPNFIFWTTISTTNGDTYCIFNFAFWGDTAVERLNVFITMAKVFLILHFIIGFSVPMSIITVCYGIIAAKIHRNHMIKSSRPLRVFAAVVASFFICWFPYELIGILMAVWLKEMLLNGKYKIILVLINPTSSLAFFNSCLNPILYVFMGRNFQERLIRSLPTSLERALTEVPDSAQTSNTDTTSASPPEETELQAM

FPRL2 [2] = target: T1, FPRL2; details: not depicted

NSLFGSVETWPWQVL [F2L[7–21]] was tested, and the “activity on FPRL2” value (FPRL2 [1]) was “totally inactive” and the “activity in FPRL2 binding assay” value (FPRL2 [2]) was “totally inactive”.
